Reference: publication PMC10366545, “Phosphoregulation of DNA repair via the Rad51 auxiliary factor Swi5–Sfr1” (The Journal of Biological Chemistry, 2023)
Residue numbers refer to the chain shown, from its start.

B1: Rad51 (natural protein, S. pombe, UniProt P36601 1-365, looked up)
chain: MADTEVEMQVSAADTNNNENGQAQSNYEYDVNVQDEEDEAAAGPMPLQMLEGNGITASDIKKIHEAGYYTVESIAYTPKRQLLLIKGISEAKADKLLGEASKLVPMGFTTATEYHIRRSELITITTGSKQLDTLLQGGVETGSITELFGEFRTGKSQICHTLAVTCQLPIDMGGGEGKCLYIDTEGTFRPVRLLAVADRYGLNGEEVLDNVAYARAYNADHQLELLQQAANMMSESRFSLLVVDSCTALYRTDFSGRGELSARQMHLARFMRTLQRLADEFGIAVVITNQVVAQVDGISFNPDPKKPIGGNILAHSSTTRLSLRKGRGEQRICKIYDSPCLPESEAIFAINSDGVGDPKEIIAPV
notes: Rad51 recombinase, S. pombe; also called S. pombe Rad51; Rad51-ssDNA filament
B2: BA663 80-mer ssDNA (ssDNA)
DNA: TTGATAAGAGGTCATTTTTGCGGATGGCTTAGAGCTTAATTGCTGAATCTGGTGCTGTAGCTCAACATGTTTTAAATATG
B3: BA663/BA664 80-bp dsDNA (dsDNA)
DNA 1: B2 DNA
DNA 2: CATATTTAAAACATGTTGAGCTACAGCACCAGATTCAGCAATTAAGCTCTAAGCCATCCGCAAAAATGACCTCTTATCAA
B4: Swi5–Sfr1 phosphomimetic mutant complex (S5S1-PM) (complex, S. pombe)
chain 1: MSQTINSELNENATSQCKEDLKVDLSESDLRDSQGQLGIENPPKCNNSGNHSDNLGFIEQSETVHPENEKALDPDLRDTKIHTSLPITTPFSKKRAREAKNILLKPFKDPLRQTADPQVADTNLKPSLAVTNLNSDETNTSSEPVTSPLRTTPNSIKRQKRLFKDPISNCLNPKSDPEITQLLSRRLKLEKEVRNLQEQLITAETARKVEAKNEDKDLQTLIQKWKNAAQQAAEVLFKPMAERIRLAGGVTQSFRIEEGENKGQIQEVRTEFTMSMFLNQFGVPVHLMSFDEENGDWKS
chain 2: MEKSQLESRVHLLEQQKEQLESSLQDALAKLKNRDAKQTVQKHIDLLHTYNEIRDIALGMIGKVAEHEKCTSVELFDRFGVNGSE
notes: Sfr1, S. pombe, five S/T phosphosites (S24, T73, S109, S116, S165) mutated to D; Swi5, S. pombe; source: E. coli BL21 DE3 (pRARE2), Sfr1 co-expressed with Swi5 from pET11b, purified (His-tag column, HiTrap Q, Superdex 200); not shown: His6, N-terminal, kept
B5: BA494 116-mer ssDNA (ssDNA)
DNA: TTCAATATCTGGTTGAACGGCGTCGCGTCGTAACCCAGCTTGGTAAGTTGGATTAAGCACTCCGTGGACAGATTTGTCATTGTGAGCATTTTCATCCCGAAGTTGCGGCTCATTCT
B6: BA655 100-mer ssDNA (ssDNA)
DNA: ATAAGGCCACGTATTTTGCAAGCTATTTAACTGGCGGCGATTGCGTACCCGACGACCAAAATTAGGGTCAACGCTACCTGTAGGAAGTGTCCGCATAAAG

What was measured:
[1] = target: T1, Swi5–Sfr1 complex (wildtype, hexahistidine-tagged Sfr1) (S. pombe, UniProt Q9USV1 1-299; Q9UUB7 1-85); experiment: pull-down; in solution; nickel resin holds hexahistidine-tagged S5S1; 500 nM each protein; 30 mM Tris-Cl 7.5, 100 mM KCl, 5 mM MgCl2, 1 mM ATP, 0.25 mM TCEP, 5% glycerol, 0.05% Tween-20; 30 °C 15 min, then resin 1 h at 4 °C; SDS-PAGE, Coomassie; settings: both partners purified
T1 construct: Sfr1, S. pombe; Swi5, S. pombe; Made in E. coli, so it serves as the unphosphorylated sample; also called S5S1; wildtype S5S1; source: E. coli BL21 DE3 (pRARE2), Sfr1 co-expressed with Swi5 from pET11b, purified (His-tag column, HiTrap Q, Superdex 200); not shown: His6, N-terminal, kept
T1 sequence (looked up) 1: B4 chain 1 with D24S, D73T, D109S, D116S, D165S
T1 sequence (looked up) 2: B4 chain 2

[2] = target: T2, Swi5–Sfr1 nonphosphorylatable mutant complex (S5S1-NON) (S. pombe, UniProt Q9USV1 1-299; Q9UUB7 1-85, S24 to A | T73 to A | S109 to A | S116 to A | S165 to A); experiment: as above; settings: both partners purified
T2 construct: Sfr1, S. pombe, five S/T phosphosites (S24, T73, S109, S116, S165) mutated to A; Swi5, S. pombe; source: E. coli BL21 DE3 (pRARE2), Sfr1 co-expressed with Swi5 from pET11b, purified (His-tag column, HiTrap Q, Superdex 200); not shown: His6, N-terminal, kept
T2 sequence (looked up) 1: B4 chain 1 with D24A, D73A, D109A, D116A, D165A
T2 sequence (looked up) 2: B4 chain 2

[3] = target: T3, Swi5-Sfr1 (S5S1) wild type (Schizosaccharomyces pombe, UniProt Q9UUB7;Q9USV1 1-85;1-299); experiment: EMSA; 3.5 mM Mg2+; EMSA: 25 mM Hepes-KOH pH 7.5, 100 mM KCl, 3.5 mM MgCl2, 0.5 mM TCEP, 5% glycerol, 20 nM DNA, 37 C 15 min, 0.8% agarose in TAE at 4 C; pull-down: 25 mM Tris-Cl pH 7.5, 100 mM NaCl, 2 mM ATP, 5 mM MgCl2, 37 C; settings: protein: recombinant, tags: N-terminal His6 on Sfr1, copies: 1;1
T3 sequence 1: B4 chain 2
T3 sequence 2: B4 chain 1 with D24S, D73T, D109S, D116S, D165S

Rad51 [4] = target: B1; experiment: pull-down; filament binding assay: Rad51 (3.33 μM) filaments on circular ssDNA (10 μMnt) held on streptavidin beads through a biotinylated oligonucleotide; 3.33 μM S5S1 added, 5 min 37 °C; 25 mM Tris-Cl 7.5, 100 mM NaCl, 3.5 mM MgCl2, 2 mM ATP, 0.5 mM TCEP, 5% glycerol, 0.05% Tween-20; Sfr1 signal normalised to Rad51, relative to wildtype, n = 3; settings: both partners purified
Rad51 [5] = target: T4, Rad51 (Schizosaccharomyces pombe, UniProt P36601 1-365); experiment: negative-stain EM; 2 mM ATP, 5 mM Mg2+; EMSA: 25 mM Hepes-KOH pH 7.5, 100 mM KCl, 3.5 mM MgCl2, 0.5 mM TCEP, 5% glycerol, 20 nM DNA, 37 C 15 min, 0.8% agarose in TAE at 4 C; pull-down: 25 mM Tris-Cl pH 7.5, 100 mM NaCl, 2 mM ATP, 5 mM MgCl2, 37 C; settings: protein: recombinant
T4 sequence: B1 chain

[6] = target: T5, Rad51;Swi5-Sfr1 (S5S1) wild type (Schizosaccharomyces …, UniProt P36601;Q9UUB7;Q9USV1 1-365;1-85;1-299, |); experiment: negative-stain EM; 2 mM ATP, 5 mM Mg2+; longer filaments; EMSA: 25 mM Hepes-KOH pH 7.5, 100 mM KCl, 3.5 mM MgCl2, 0.5 mM TCEP, 5% glycerol, 20 nM DNA, 37 C 15 min, 0.8% agarose in TAE at 4 C; pull-down: 25 mM Tris-Cl pH 7.5, 100 mM NaCl, 2 mM ATP, 5 mM MgCl2, 37 C; settings: protein: recombinant;recombinant; tags: ;N-terminal His6 on Sfr1
T5 sequence 1: B1 chain
T5 sequence 2: B4 chain 2
T5 sequence 3: B4 chain 1 with D24S, D73T, D109S, D116S, D165S

Rad51 [7] = target: T4, Rad51; experiment: streptavidin pull-down; 2 mM ATP, 5 mM Mg2+; EMSA: 25 mM Hepes-KOH pH 7.5, 100 mM KCl, 3.5 mM MgCl2, 0.5 mM TCEP, 5% glycerol, 20 nM DNA, 37 C 15 min, 0.8% agarose in TAE at 4 C; pull-down: 25 mM Tris-Cl pH 7.5, 100 mM NaCl, 2 mM ATP, 5 mM MgCl2, 37 C; settings: protein: recombinant; label: 5' biotin
[8] = target: T5, Rad51;Swi5-Sfr1 (S5S1) wild type; experiment: streptavidin pull-down; ATP, Mg2+, Fbh1-Skp1; S5S1 antagonizes disruption; EMSA: 25 mM Hepes-KOH pH 7.5, 100 mM KCl, 3.5 mM MgCl2, 0.5 mM TCEP, 5% glycerol, 20 nM DNA, 37 C 15 min, 0.8% agarose in TAE at 4 C; pull-down: 25 mM Tris-Cl pH 7.5, 100 mM NaCl, 2 mM ATP, 5 mM MgCl2, 37 C; settings: protein: recombinant;recombinant; tags: ;N-terminal His6 on Sfr1; label: 5' biotin

## B1
[1]
  binding result: binds
[2]
  binding result: binds

## B2
[3]; label: 3' Cy5
  binding result: binds

## B3
[3]; label: 3' Cy5 on BA663, blunt
  binding result: binds

## B4
Rad51 [4]
  fold reduction in coprecipitation with Rad51 filaments against wildtype S5S1: ~5 fold

## B5
Rad51 [5]
  binding result: binds
[6]
  binding result: binds

## B6
Rad51 [7]
  binding result: binds
[8]
  binding result: binds
